Source: FireProtDB (doi:10.1016/0022-2836(91)90566-o)

B1: DNA-Binding protein, P69542 (parent)
chain: MIKVEIKPSQAQFTTRSGVSRQGKPYSLNEQLCYVDLGNEYPVLVKITLDEGQPAYAPGLYTVHLSSFKVGQFGSLMIDRLRLVPAK

Variants of: B1
Settings: Enterobacteria phage fd; pH 7; 25 °C; GdnHCl; CD; MOPS 50 mM; NaCl 100 mM; reversible: yes; structure 1VQB; whole UniProt chain shown

| Variant | ddG of mutation (higher = less stable) | denaturant m value | denaturant midpoint (higher = more stable) | unfolding free energy |
| --- | --- | --- | --- | --- |
| D50H | 1.5 kcal/mol | 3.8 kcal/mol/M | 2.1 M | 7.5 kcal/mol |
| I47T | 7.4 kcal/mol | 4.9 kcal/mol/M | 0.9 M | 1.6 kcal/mol |
| V70C | 3.1 kcal/mol | 4.4 kcal/mol/M | 1.7 M | 5.9 kcal/mol |
| V70P | 5 kcal/mol | 4.4 kcal/mol/M | 1.3 M | 4 kcal/mol |
| D36N | 1 kcal/mol | 4.2 kcal/mol/M | 2.2 M | 8 kcal/mol |
| D36C | 2 kcal/mol | 3.5 kcal/mol/M | 2 M | 7 kcal/mol |
| E30M | -0.7 kcal/mol | 3.7 kcal/mol/M | 2.78 M | 9.7 kcal/mol |
| C33S | 4.2 kcal/mol | 4 kcal/mol/M | 1.4 M | 4.8 kcal/mol |
| F68L | 4.2 kcal/mol | 3.4 kcal/mol/M | 1.4 M | 4.8 kcal/mol |
| K69M | -0.2 kcal/mol | 3.1 kcal/mol/M | 2.7 M | 9.2 kcal/mol |
